Experimental data: patent US20100098708A1
“And” between values parts separate entries of the source, which are not always exact repeats. Equal entries are not always repeated.

Target: RSV F protein (immobilised antigen of Example 6.1) (respiratory syncytial virus)
Test: BIAcore

Chain of RSV F protein (immobilised antigen of Example 6.1) (respiratory syncytial virus) (P03420 26-524): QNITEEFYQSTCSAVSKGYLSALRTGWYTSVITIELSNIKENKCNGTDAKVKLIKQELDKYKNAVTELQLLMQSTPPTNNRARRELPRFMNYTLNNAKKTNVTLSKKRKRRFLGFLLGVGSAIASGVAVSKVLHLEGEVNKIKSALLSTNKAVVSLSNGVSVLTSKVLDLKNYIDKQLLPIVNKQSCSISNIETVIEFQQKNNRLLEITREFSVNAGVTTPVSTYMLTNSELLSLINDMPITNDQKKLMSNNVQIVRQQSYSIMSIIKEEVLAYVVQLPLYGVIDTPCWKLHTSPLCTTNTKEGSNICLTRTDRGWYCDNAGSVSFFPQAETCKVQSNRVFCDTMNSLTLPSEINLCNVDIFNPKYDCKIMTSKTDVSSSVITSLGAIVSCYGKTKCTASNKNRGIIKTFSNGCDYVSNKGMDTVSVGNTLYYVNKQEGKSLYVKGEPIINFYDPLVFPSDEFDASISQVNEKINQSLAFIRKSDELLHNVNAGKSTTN

Binder | koff | kon
H3-3F4 Fab (Fab, V domains shown) VH: QVTLRESGPALVKPTQTLTLTCTFSGFSLSTAGMSVGWIRQPPGKALEWLADIWWDDKKDYNPSLKSRLTISKDTSKNQVVLKVTNMDPADTATYYCARDMIFNWYFDVWGQGTTVTVSS VL: DIQMTQSPSTLSASVGDRVTITCSASSSVGYMHWYQQKPGKAPKLLIYDTFKLASGVPSRFSGSGSGTEFTLTISSLQPDDFATYYCFQGSGYPFTFGGGTKVEIK | 0.000445 s⁻¹ and 0.000402 s⁻¹ | 
P12f4 Fab (Fab, V domains shown) VH: QVTLRESGPALVKPTQTLTLTCTFSGFSLSTPGMSVGWIRQPPGKALEWLADIWWDGKKHYNPSLKDRLTISKDTSKNQVVLKVTNMDPADTATYYCARDMIFNFYFDVWGQGTTVTVSS VL: DIQMTQSPSTLSASVGDRVTITCSLSSRVGYMHWYQQKPGKAPKLLIYDTRGLPSGVPSRFSGSGSGTEFTLTISSLQPDDFATYYCFQGSGYPFTFGGGTKVEIK | 0.000299 s⁻¹ | 527000 M⁻¹ s⁻¹
L1-7E5 Fab (Fab, V domains shown) VH: QVTLRESGPALVKPTQTLTLTCTFSGFSLSTAGMSVGWIRQPPGKALEWLADIWWDDKKDYNPSLKSRLTISKDTSKNQVVLKVTNMDPADTATYYCARDMITNFYFDVWGQGTTVTVSS VL: DIQMTQSPSTLSASVGDRVTITCSASSRVGYMHWYQQKPGKAPKLLIYDTFKLASGVPSRFSGSGSGTEFTLTISSLQPDDFATYYCFQGSGYPFTFGGGTKVEIK | 0.000192 s⁻¹ and 0.000331 s⁻¹ and 0.000229 s⁻¹ | 
DG (aka D95/G93) Fab (Fab, V domains shown) VH: QVTLRESGPALVKPTQTLTLTCTFSGFSLSTAGMSVGWIRQPPGKALEWLADIWWDDKKDYNPSLKSRLTISKDTSKNQVVLKVTNMDPADTATYYCARDMITNFYFDVWGQGTTVTVSS VL: DIQMTQSPSTLSASVGDRVTITCSASSSVGYMHWYQQKPGKAPKLLIYDTFKLASGVPSRFSGSGSGTEFTLTISSLQPDDFATYYCFQGSGYPFTFGGGTKVEIK | 0.000167 s⁻¹ and 0.000444 s⁻¹ | 

Now from value to binder:

koff | kon | Binder
0.000178 s⁻¹ and 0.000473 s⁻¹ | 314000 M⁻¹ s⁻¹ and 444000 M⁻¹ s⁻¹ | 6H8 Fab (Fab, V domains shown) VH: QVTLRESGPALVKPTQTLTLTCTFSGFSLSTAGMSVGWIRQPPGKALEWLADIWWDDKKDYNPSLKSRLTISKDTSKNQVVLKVTNMDPADTATYYCARDMITNFYFDVWGQGTTVTVSS VL: DIQMTQSPSTLSASVGDRVTITCSASSSVGYMHWYQQKPGKAPKLLIYDTFKLTSGVPSRFSGSGSGTEFTLTISSLQPDDFATYYCFQGSGYPFTFGGGTKVEIK
0.000338 s⁻¹ | 605000 M⁻¹ s⁻¹ | M3H9 Fab (Fab, V domains shown) VH: QVTLRESGPALVKPTQTLTLTCTFSGFSLSTAGMSVGWIRQPPGKALEWLADIWWDDKKDYNPSLKSRLTISKDTSKNQVVLKVTNMDPADTATYYCARDMIFNWYFDVWGQGTTVTVSS VL: DIQMTQSPSTLSASVGDRVTITCSASSSVGYMHWYQQKPGKAPKLLIYDTYKQTSGVPSRFSGSGSGTEFTLTISSLQPDDFATYYCFQGSGYPFTFGGGTKVEIK
0.000462 s⁻¹ | 757000 M⁻¹ s⁻¹ | Y10H6 Fab (Fab, V domains shown) VH: QVTLRESGPALVKPTQTLTLTCTFSGFSLSTAGMSVGWIRQPPGKALEWLADIWWDDKKDYNPSLKSRLTISKDTSKNQVVLKVTNMDPADTATYYCARDMIFNWYFDVWGQGTTVTVSS VL: DIQMTQSPSTLSASVGDRVTITCSASSSVGYMHWYQQKPGKAPKLLIYDTRYLSSGVPSRFSGSGSGTEFTLTISSLQPDDFATYYCFQGSGYPFTFGGGTKVEIK
